T1: PTPRO expressed on cells (human, UniProt Q16827 30-1216)
T1 construct: whole, on cells
T1 sequence (looked up): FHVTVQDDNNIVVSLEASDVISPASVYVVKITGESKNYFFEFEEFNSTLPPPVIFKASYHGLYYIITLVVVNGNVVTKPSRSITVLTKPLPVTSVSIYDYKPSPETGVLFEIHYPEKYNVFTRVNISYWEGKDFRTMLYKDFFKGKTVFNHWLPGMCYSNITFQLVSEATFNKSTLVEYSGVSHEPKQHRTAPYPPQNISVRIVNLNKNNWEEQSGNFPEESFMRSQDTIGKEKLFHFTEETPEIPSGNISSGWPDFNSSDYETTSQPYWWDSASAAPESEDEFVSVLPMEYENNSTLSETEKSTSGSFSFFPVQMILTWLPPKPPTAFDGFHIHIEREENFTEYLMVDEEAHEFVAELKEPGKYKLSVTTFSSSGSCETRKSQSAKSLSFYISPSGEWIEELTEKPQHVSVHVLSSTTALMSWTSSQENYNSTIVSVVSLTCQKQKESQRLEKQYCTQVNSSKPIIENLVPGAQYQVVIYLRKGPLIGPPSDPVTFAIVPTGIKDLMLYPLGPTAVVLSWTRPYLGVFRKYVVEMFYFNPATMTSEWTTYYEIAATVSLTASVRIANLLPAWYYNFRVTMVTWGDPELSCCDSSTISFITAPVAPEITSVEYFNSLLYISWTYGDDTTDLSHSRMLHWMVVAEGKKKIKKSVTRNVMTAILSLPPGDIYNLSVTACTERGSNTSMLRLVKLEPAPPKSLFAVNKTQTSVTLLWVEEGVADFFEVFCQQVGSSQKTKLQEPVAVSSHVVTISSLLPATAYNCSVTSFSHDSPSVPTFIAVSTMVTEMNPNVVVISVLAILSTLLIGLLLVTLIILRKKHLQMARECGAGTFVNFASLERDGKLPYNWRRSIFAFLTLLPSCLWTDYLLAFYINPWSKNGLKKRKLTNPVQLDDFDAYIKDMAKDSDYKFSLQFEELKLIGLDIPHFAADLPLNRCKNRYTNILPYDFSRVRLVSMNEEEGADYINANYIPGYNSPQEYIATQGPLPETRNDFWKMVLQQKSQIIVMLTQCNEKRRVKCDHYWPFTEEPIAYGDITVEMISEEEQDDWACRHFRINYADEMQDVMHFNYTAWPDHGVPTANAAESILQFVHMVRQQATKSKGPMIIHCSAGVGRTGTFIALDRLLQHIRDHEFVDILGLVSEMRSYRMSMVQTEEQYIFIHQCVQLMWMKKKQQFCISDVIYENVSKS

T2: PTPRD R561Q variant extracellular domain (human, UniProt P23468 21-1265)
T2 construct: extracellular domain; also called FN3 mutant
T2 sequence (looked up): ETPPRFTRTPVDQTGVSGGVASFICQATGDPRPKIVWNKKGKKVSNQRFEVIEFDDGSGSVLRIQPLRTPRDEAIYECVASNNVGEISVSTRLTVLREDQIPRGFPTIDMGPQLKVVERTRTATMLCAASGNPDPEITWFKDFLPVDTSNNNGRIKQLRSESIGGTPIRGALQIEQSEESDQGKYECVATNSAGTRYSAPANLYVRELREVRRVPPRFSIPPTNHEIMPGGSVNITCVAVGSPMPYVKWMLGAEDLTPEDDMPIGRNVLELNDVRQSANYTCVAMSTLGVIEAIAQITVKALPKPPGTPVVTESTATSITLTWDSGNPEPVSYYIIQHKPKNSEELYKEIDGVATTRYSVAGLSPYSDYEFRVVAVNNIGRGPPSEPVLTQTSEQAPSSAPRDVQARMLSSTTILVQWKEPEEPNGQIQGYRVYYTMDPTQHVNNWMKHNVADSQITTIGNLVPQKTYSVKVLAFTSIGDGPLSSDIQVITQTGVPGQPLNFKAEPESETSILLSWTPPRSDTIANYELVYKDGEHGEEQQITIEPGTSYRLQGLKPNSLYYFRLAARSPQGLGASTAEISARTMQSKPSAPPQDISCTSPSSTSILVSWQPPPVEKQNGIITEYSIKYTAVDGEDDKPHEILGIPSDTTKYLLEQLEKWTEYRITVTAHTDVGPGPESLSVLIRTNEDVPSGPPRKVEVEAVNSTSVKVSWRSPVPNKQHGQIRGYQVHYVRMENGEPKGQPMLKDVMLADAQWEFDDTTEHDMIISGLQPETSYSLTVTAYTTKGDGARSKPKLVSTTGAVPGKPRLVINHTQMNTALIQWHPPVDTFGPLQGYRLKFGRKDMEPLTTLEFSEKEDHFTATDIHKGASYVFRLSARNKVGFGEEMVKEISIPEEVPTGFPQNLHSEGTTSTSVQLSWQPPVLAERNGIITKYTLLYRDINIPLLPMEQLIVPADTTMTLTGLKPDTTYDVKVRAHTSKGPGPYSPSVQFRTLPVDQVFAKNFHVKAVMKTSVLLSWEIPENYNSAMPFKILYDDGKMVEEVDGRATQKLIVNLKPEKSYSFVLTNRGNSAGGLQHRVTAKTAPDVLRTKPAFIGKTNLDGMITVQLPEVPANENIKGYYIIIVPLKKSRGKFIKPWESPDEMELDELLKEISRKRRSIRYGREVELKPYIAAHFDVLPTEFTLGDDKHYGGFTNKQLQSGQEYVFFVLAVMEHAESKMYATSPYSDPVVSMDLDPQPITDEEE


What was measured:
PTPRF expressed on cells = target: T3, PTPRF expressed on cells (human, UniProt P10586 30-1907); experiment: cell surface interaction assay: query ECD tetramerised with fluorescent streptavidin on transfected cells, immunofluorescence
T3 construct: whole, on cells; also called receptor-type tyrosine-protein phosphatase F
T3 sequence (P10586 30-1907): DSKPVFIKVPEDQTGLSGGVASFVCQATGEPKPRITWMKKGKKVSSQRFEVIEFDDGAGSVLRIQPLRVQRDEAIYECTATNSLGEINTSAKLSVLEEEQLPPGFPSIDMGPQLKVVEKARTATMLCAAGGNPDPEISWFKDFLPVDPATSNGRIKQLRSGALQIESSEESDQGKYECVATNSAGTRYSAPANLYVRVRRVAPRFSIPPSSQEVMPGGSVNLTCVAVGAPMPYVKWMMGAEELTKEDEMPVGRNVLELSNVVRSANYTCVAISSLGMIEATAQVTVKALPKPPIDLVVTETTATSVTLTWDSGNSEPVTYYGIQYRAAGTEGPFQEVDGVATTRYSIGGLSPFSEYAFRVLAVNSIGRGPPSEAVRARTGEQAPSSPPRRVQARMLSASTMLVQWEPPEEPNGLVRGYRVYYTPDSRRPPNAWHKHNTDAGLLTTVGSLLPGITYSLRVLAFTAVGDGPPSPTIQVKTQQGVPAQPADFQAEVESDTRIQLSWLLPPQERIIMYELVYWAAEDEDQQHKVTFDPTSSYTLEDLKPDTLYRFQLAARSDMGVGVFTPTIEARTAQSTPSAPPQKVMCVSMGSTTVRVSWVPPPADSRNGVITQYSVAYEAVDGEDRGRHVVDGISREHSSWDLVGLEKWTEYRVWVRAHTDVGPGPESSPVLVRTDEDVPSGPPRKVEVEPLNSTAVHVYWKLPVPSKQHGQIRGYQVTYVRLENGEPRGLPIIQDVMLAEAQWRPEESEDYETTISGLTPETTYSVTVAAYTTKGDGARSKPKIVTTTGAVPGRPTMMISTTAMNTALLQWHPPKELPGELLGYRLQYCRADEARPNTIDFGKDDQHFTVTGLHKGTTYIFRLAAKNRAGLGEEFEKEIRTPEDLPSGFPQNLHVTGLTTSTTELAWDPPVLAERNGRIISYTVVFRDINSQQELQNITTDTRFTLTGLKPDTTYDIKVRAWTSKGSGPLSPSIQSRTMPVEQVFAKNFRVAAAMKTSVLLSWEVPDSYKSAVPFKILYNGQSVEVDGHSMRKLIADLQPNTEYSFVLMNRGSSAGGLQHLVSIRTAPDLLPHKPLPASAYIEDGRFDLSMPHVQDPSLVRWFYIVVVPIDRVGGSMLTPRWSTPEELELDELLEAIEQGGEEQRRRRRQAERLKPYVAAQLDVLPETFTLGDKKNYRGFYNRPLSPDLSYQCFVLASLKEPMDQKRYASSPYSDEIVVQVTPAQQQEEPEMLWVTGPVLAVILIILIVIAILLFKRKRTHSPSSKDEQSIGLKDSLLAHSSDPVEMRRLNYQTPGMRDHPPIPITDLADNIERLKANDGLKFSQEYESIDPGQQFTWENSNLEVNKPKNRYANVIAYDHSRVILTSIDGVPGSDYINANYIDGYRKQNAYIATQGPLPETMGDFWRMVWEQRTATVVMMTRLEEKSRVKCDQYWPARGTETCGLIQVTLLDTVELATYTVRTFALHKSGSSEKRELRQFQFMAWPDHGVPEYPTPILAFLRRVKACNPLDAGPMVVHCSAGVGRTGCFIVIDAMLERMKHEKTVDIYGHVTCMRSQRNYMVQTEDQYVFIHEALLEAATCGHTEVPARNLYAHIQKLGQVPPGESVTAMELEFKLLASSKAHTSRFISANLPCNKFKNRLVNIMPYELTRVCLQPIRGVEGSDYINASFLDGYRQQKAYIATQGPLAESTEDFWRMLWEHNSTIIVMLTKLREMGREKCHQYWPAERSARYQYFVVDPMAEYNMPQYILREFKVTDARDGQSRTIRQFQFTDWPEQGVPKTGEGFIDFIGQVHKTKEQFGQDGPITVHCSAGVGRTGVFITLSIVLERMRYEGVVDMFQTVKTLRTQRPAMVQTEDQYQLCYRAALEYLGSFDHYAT

PTPRD expressed on cells = target: T4, PTPRD expressed on cells (human, UniProt P23468 21-1912); experiment: as above
T4 construct: whole, on cells; also called receptor-type tyrosine-protein phosphatase delta

PTPRG expressed on cells = target: T5, PTPRG expressed on cells (human, UniProt P23470 20-1445); experiment: as above
T5 construct: whole, on cells
T5 sequence (P23470 20-1445): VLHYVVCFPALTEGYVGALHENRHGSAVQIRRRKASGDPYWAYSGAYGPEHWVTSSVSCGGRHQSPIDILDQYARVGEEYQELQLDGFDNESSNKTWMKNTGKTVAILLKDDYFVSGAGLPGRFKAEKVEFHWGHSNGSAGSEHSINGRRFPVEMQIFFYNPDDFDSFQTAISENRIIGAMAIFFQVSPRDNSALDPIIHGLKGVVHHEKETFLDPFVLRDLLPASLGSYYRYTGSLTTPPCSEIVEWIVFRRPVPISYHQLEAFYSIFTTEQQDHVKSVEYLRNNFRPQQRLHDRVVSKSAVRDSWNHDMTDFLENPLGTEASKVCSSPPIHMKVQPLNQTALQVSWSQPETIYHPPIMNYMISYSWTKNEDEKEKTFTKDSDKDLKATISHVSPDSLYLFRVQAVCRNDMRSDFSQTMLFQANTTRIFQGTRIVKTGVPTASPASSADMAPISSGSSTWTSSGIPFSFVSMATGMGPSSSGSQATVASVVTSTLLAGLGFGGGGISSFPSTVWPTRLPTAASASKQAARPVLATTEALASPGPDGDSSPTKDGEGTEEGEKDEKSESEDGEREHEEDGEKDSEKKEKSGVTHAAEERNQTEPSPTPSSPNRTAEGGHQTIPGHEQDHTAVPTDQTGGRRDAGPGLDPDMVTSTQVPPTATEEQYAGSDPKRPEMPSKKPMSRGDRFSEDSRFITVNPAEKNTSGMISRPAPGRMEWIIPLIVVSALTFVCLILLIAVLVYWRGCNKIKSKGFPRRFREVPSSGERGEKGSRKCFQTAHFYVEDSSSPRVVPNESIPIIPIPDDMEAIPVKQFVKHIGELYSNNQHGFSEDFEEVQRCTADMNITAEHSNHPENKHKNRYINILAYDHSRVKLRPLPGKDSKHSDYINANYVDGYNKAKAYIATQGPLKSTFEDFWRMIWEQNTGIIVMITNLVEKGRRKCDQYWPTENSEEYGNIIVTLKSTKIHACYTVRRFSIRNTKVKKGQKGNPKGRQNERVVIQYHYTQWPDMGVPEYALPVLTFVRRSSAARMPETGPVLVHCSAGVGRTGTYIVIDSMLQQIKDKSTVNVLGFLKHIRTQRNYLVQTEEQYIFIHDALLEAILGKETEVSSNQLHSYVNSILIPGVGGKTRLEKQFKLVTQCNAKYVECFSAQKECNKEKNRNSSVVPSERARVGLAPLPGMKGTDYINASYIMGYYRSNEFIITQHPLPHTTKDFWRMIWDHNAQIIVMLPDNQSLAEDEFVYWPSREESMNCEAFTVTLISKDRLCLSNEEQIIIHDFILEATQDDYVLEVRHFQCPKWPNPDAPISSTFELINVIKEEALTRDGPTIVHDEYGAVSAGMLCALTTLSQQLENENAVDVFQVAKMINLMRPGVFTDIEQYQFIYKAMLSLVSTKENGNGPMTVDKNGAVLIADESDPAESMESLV

PTPRM expressed on cells = target: T6, PTPRM expressed on cells (human, UniProt P28827 21-1452); experiment: as above
T6 construct: whole, on cells
T6 sequence (P28827 21-1452): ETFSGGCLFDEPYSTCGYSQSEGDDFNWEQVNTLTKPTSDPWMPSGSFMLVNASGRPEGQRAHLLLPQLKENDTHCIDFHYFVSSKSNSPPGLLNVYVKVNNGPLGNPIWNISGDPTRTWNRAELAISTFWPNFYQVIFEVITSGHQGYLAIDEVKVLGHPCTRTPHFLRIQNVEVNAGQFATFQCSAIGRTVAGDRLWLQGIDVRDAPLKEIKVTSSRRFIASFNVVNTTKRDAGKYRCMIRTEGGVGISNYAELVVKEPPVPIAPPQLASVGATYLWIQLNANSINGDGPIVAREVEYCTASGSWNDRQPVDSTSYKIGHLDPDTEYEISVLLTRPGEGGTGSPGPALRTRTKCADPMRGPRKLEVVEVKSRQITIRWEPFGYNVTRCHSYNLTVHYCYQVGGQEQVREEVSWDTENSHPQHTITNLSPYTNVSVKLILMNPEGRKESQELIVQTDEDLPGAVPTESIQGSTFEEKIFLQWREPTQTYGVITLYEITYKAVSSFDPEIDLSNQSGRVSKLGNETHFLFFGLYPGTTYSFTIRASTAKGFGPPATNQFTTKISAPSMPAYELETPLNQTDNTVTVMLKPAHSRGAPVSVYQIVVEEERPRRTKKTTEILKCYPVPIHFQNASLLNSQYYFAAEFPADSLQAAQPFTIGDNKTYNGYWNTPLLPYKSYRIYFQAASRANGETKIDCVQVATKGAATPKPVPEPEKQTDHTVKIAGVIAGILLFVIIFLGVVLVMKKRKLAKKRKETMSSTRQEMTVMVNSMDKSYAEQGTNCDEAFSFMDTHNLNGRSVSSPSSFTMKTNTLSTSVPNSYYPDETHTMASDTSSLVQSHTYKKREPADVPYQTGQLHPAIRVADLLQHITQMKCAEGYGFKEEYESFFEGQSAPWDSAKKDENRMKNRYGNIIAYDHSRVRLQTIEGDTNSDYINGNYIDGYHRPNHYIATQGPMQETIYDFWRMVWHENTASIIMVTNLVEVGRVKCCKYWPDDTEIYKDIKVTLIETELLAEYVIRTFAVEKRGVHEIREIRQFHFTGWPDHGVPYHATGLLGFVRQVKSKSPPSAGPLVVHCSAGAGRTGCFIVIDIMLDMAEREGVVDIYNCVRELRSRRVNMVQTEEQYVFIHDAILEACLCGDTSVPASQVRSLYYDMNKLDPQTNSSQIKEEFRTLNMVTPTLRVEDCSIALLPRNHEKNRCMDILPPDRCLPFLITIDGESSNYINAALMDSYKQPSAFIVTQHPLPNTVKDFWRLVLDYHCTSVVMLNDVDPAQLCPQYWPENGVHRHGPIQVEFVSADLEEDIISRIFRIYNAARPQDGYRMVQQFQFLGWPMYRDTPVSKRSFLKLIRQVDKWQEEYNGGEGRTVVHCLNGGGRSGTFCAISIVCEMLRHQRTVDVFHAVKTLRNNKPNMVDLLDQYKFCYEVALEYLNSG

PTPRS expressed on cells = target: T7, PTPRS expressed on cells (human, UniProt Q13332 30-1948); experiment: as above
T7 construct: whole, on cells; also called receptor-type tyrosine-protein phosphatase S

PTPRO expressed on cells = target: T1, PTPRO expressed on cells; experiment: as above
[1] = target: T2, PTPRD R561Q variant extracellular domain; experiment: extracellular interaction screen: pentameric PTPRD variant ECD on ECD-Fc prey (FIG. 5L)

Row | binding result (PTPRF expressed on cells) | binding result (PTPRD expressed on cells) | binding result (PTPRG expressed on cells) | binding result (PTPRM expressed on cells) | binding result (PTPRS expressed on cells) | binding result (PTPRO expressed on cells) | binding result [1] | Binder
1 | no binding | no binding | no binding | no binding | no binding | no binding |  | CNTN1 extracellular domain (receptor, human, UniProt Q12860 21-993, looked up, extracellular domain; Streptavidin tetramer in cell assays; ECD-Fc in SPR; also called contactin 1) EFTWYRRYGHGVSEEDKGFGPIFEEQPINTIYPEESLEGKVSLNCRARASPFPVYKWRMNNGDVDLTSDRYSMVGGNLVINNPDKQKDAGIYYCLASNNYGMVRSTEATLSFGYLDPFPPEERPEVRVKEGKGMVLLCDPPYHFPDDLSYRWLLNEFPVFITMDKRRFVSQTNGNLYIANVEASDKGNYSCFVSSPSITKSVFSKFIPLIPIPERTTKPYPADIVVQFKDVYALMGQNVTLECFALGNPVPDIRWRKVLEPMPSTAEISTSGAVLKIFNIQLEDEGIYECEAENIRGKDKHQARIYVQAFPEWVEHINDTEVDIGSDLYWPCVATGKPIPTIRWLKNGYAYHKGELRLYDVTFENAGMYQCIAENTYGAIYANAELKILALAPTFEMNPMKKKILAAKGGRVIIECKPKAAPKPKFSWSKGTEWLVNSSRILIWEDGSLEINNITRNDGGIYTCFAENNRGKANSTGTLVITDPTRIILAPINADITVGENATMQCAASFDPALDLTFVWSFNGYVIDFNKENIHYQRNFMLDSNGELLIRNAQLKHAGRYTCTAQTIVDNSSASADLVVRGPPGPPGGLRIEDIRATSVALTWSRGSDNHSPISKYTIQTKTILSDDWKDAKTDPPIIEGNMEAARAVDLIPWMEYEFRVVATNTLGRGEPSIPSNRIKTDGAAPNVAPSDVGGGGGRNRELTITWAPLSREYHYGNNFGYIVAFKPFDGEEWKKVTVTNPDTGRYVHKDETMSPSTAFQVKVKAFNNKGDGPYSLVAVINSAQDAPSEAPTEVGVKVLSSSEISVHWEHVLEKIVESYQIRYWAAHDKEEAANRVQVTSQEYSARLENLLPDTQYFIEVGACNSAGCGPPSDMIEAFTKKAPPSQPPRIISSVRSGSRYIITWDHVVALSNESTVTGYKVLYRPDGQHDGKLYSTHKHSIEVPIPRDGEYVVEVRAHSDGGDGVVSQVKIS
2 |  |  |  |  |  |  | no binding | LRRC4B extracellular domain (receptor, human, UniProt Q9NT99 36-576, looked up, extracellular domain; ECD-Fc prey; also called NGL-3; netrin-G ligand-3) AGGGGVAVTSAAGGGSPPATSCPVACSCSNQASRVICTRRDLAEVPASIPVNTRYLNLQENGIQVIRTDTFKHLRHLEILQLSKNLVRKIEVGAFNGLPSLNTLELFDNRLTTVPTQAFEYLSKLRELWLRNNPIESIPSYAFNRVPSLRRLDLGELKRLEYISEAAFEGLVNLRYLNLGMCNLKDIPNLTALVRLEELELSGNRLDLIRPGSFQGLTSLRKLWLMHAQVATIERNAFDDLKSLEELNLSHNNLMSLPHDLFTPLHRLERVHLNHNPWHCNCDVLWLSWWLKETVPSNTTCCARCHAPAGLKGRYIGELDQSHFTCYAPVIVEPPTDLNVTEGMAAELKCRTGTSMTSVNWLTPNGTLMTHGSYRVRISVLHDGTLNFTNVTVQDTGQYTCMVTNSAGNTTASATLNVSAVDPVAAGGTGSGGGGPGGSGGVGGGSGGYTYFTTVTVETLETQPGEEALQPRGTEKEPPGPTTDGVWGGGRPGDAAGPASSSTTAPAPRSSRPTEKAFTVPITDVTENALKDLDDVMKTTK
